This note sets out measurements from patent publication EP4053153A1.

Test [1] has as its target mouse transferrin receptor (mouse) (UniProt Q62351). Briefly: MST (Monolith NT.115); His-tag-dye-labelled protein, TfR titrated.
Test [2] addresses human transferrin receptor (human) (UniProt P02786). Described as above.

Usually Kd stands for the constant that tells how readily two partners part at equilibrium.

Sequence of human transferrin receptor (human) (P02786 89-760 limits assumed): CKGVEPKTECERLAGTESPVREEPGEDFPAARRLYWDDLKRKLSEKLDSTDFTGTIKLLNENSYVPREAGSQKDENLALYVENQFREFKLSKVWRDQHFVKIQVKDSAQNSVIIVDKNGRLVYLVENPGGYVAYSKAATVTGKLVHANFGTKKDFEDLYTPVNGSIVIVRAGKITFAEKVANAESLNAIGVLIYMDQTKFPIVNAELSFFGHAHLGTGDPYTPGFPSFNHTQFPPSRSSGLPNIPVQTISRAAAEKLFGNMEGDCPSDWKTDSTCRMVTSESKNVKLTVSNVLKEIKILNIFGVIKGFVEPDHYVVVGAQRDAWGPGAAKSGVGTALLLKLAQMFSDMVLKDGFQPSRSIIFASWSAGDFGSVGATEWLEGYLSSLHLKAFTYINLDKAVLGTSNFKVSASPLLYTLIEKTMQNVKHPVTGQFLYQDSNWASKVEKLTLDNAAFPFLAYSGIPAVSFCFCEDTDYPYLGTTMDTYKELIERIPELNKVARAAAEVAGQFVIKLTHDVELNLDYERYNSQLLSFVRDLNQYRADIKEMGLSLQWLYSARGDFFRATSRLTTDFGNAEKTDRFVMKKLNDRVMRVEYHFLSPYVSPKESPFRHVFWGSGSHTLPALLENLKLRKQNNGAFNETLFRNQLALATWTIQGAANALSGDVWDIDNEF
Sequence of mouse transferrin receptor (mouse) (Q62351 89-763 limits assumed): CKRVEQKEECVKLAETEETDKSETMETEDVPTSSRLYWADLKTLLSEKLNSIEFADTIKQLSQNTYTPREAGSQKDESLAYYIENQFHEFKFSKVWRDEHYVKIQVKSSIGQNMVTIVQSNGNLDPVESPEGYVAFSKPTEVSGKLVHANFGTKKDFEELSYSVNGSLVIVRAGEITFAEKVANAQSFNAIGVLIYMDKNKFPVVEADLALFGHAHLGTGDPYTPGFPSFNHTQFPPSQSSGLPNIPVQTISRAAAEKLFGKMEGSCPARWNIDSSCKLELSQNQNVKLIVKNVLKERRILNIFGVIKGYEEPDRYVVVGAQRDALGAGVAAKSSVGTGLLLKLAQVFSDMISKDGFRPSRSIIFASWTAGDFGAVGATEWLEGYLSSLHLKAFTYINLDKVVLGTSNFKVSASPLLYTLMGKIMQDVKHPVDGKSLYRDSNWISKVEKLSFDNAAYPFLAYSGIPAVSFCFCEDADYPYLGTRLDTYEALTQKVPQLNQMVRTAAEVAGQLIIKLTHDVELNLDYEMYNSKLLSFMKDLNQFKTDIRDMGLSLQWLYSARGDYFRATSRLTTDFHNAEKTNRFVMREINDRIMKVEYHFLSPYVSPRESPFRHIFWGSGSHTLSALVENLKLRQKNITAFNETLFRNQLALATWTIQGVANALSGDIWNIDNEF

As for “DE-gp100-huHF (from UniProt P02794 1-183)”, the Kd in test [1] is 30.5 nM; in test [2], 9.78 nM.
In turn, N-AH1-huHF (from UniProt P02794 1-183) registered a Kd in test [2] of 84.6 nM.
“N-gp100-huHF (from UniProt P02794 1-183)”: the Kd in test [1] is 48.3 nM; in test [2], 18.5 nM.
